Test results published in the supplement of paper PMC9732359.
± gives the uncertainty stated by the source.

Test: protein stability index of a GFP-peptide fusion (yeast GPS) (PSI 1-4); higher = more stable; sorted into four equal gates, so the index is relative within each strain
Outline: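 Plasmids isolated from each sorting gate were PCR-amplified and Illumina-sequenced, and barcodes assigned the reads to strains. The gates, four of equal size, were set by GFP/Cherry fluorescence ratio on mid-log cultures in leucine-free medium. These cultures were yeast carrying a pooled library of tiled 17-residue yeast protein peptides fused downstream of GFP on a plasmid that also expresses Cherry. The protein stability index is the sum of every gate's read frequency times its gate number.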

Sequence | protein stability index (doa10∆) | protein stability index (pdr5∆) | protein stability index (san1∆) | protein stability index (ubr1∆)
NTNNINNSSSGMNNASA [YGL172W/NUP49] | 3.33 ± 0.11 | 3.17 ± 0.079 | 3.25 ± 0.056 | 3.22 ± 0.094
AIVPGQSISGTLELSAQ [SWP82] | 3.43 ± 0.094 | 3.13 ± 0.11 | 2.98 ± 0.14 | 3.07 ± 0.092
PYFEQKIQETELKIRSK [RPT6] | 2.71 ± 0.12 | 2.84 ± 0.1 | 2.96 ± 0.13 | 3.04 ± 0.088
ELNSSEDILEDMNSNLQ [SMC1] | 3.38 ± 0.072 | 3.32 ± 0.072 | 3.24 ± 0.045 | 3.2 ± 0.054
KNLVKVLESRVNARDIP [CSN12] | – | 1.94 ± 0.19 | 2.03 ± 0.2 | 1.76 ± 0.16
INYQVDSKLLPKNIEPP [SWI3] | 2.92 ± 0.083 | 2.81 ± 0.1 | 2.58 ± 0.064 | 2.65 ± 0.066
VPLIKVADAKQLGEWAG [RPS12] | 3.17 ± 0.21 | 3.49 ± 0.23 | – | 3.17 ± 0.12
EVTAGEAQDEASLQQQQ [SNF6] | 3.31 ± 0.17 | – | 3.29 ± 0.14 | 3.6 ± 0.27
QFEKSRKVSGPRALQPS [RET1] | 2.98 ± 0.085 | 3.19 ± 0.11 | 2.94 ± 0.061 | 3.06 ± 0.066
VRNFKEAAKLLVDSLAT [RPN7] | 2.23 ± 0.18 | – | – | –
TAEERVGRRAANLRVLN [RPL15A] | 2.83 ± 0.12 | 3.28 ± 0.14 | 2.75 ± 0.14 | 2.92 ± 0.11
MDNPRKLSKILRTEYGW [SNU114] | 3.11 ± 0.068 | 2.99 ± 0.081 | 2.91 ± 0.059 | 2.94 ± 0.066
RTNNVPMIKAEETPSKT [NUT1] | 2.9 ± 0.1 | 2.86 ± 0.084 | 2.43 ± 0.097 | 2.66 ± 0.078
YLLASLKDSKDFDESLK [RPN9] | 2.69 ± 0.083 | 2.82 ± 0.088 | 2.82 ± 0.099 | 2.52 ± 0.084
MSLRHFGHLMHYGNEHI [RPN1] | 1.47 ± 0.04 | 1.38 ± 0.039 | 1.4 ± 0.066 | 1.33 ± 0.032
KKQVHVYRFVTENAIEE [ISW2] | 1.68 ± 0.07 | 1.77 ± 0.075 | 1.87 ± 0.12 | 1.91 ± 0.045
IQEIKESVELPLTHPEL [RPT2] | 2.7 ± 0.073 | 2.97 ± 0.069 | 2.74 ± 0.068 | 2.75 ± 0.035
DIPELSFFHQSNMQKSL [RPN3] | 2.56 ± 0.065 | 2.13 ± 0.067 | 2.8 ± 0.068 | 2.87 ± 0.045
NENNSNGGEDTSVENEG [REC8] | 3.31 ± 0.14 | 3.44 ± 0.14 | 3.05 ± 0.15 | 3.07 ± 0.089
FGKKRLDLAGPLLAQLF [RPB2] | 1.44 ± 0.19 | 1.79 ± 0.16 | 1.42 ± 0.15 | 1.4 ± 0.18
GTNKDMILKLVCQVTKF [ECM29] | 1.55 ± 0.058 | 1.26 ± 0.037 | 1.28 ± 0.13 | 1.59 ± 0.077
SKSVPTPSLPIAPPVAP [SNF5] | 2.74 ± 0.057 | 2.81 ± 0.061 | 3.1 ± 0.045 | 2.55 ± 0.061
NKQIEILTDLVNYRHFK [ITC1] | 2.93 ± 0.042 | 2.99 ± 0.036 | 3.03 ± 0.043 | 2.75 ± 0.036
ANEEPNTENVESVPTPA [ITC1] | 2.87 ± 0.14 | 2.91 ± 0.11 | 2.98 ± 0.26 | 3.18 ± 0.15
GFFENIETEFLLFTVKL [IRR1] | 3.12 ± 0.077 | 3.2 ± 0.11 | 3.24 ± 0.049 | 3.12 ± 0.07
RALKVRNAQAQREAAAE [RPS6A] | 3 ± 0.14 | 2.98 ± 0.1 | 2.74 ± 0.074 | 2.94 ± 0.13
KHDSLRYRLLSDVSDFE [RPN1] | 2.7 ± 0.09 | 3.04 ± 0.1 | 2.75 ± 0.089 | 2.66 ± 0.098

Sequence | protein stability index (doa10∆) | protein stability index (pdr5∆) | protein stability index (san1∆) | protein stability index (ubr1∆)
EFSPRLHNIWSNGLLSI [YML103C/NUP188] | 1.85 ± 0.061 | 1.91 ± 0.059 | 2.08 ± 0.11 | 1.89 ± 0.046
LQEIYQTDAIKSDEAKW [RPN5] | 2.34 ± 0.09 | 2.5 ± 0.13 | 2.13 ± 0.13 | 2.16 ± 0.17
RSMSGQPPTNVQPTIGQ [SNF5] | 2.74 ± 0.065 | 2.97 ± 0.071 | 3.01 ± 0.074 | 3.15 ± 0.036
NNNNTNTQPSASGFGFG [YGR119C/NUP57] | 3.22 ± 0.081 | 2.28 ± 0.059 | 2.51 ± 0.062 | 2.89 ± 0.036
NYQYKIQELRKLLKSLL [MED7] | 1.43 ± 0.07 | 1.88 ± 0.095 | 2.28 ± 0.22 | 1.81 ± 0.072
QTKENKRCVGVILGDAN [RPN8] | 2.89 ± 0.053 | 2.9 ± 0.05 | 2.74 ± 0.055 | 2.73 ± 0.04
MQEKAAHIAKNLINLSI [YCS4] | 2.15 ± 0.15 | 1.55 ± 0.2 | – | 1.46 ± 0.093
EKIWFAISKENLCGDIS [SIR3] | 2.39 ± 0.064 | 2.44 ± 0.078 | 2.27 ± 0.11 | 1.91 ± 0.078
KPLFDFGKTGDQKETKK [YOR098C/NUP1] | 3.3 ± 0.12 | 3.6 ± 0.19 | 2.79 ± 0.22 | 3.34 ± 0.082
QLESIYFRILLPYERHM [SWI1] | 1.88 ± 0.055 | 1.83 ± 0.046 | 1.68 ± 0.067 | 1.9 ± 0.053
PEDPYFNTLVRIMSTRC [DIS3] | 2.38 ± 0.093 | 2.72 ± 0.072 | 2.56 ± 0.052 | 1.92 ± 0.049
GTCFGGSKLEDMSKILV [RET1] | 3.04 ± 0.074 | 3.3 ± 0.096 | 3.36 ± 0.065 | 3.45 ± 0.056
ALVAYTPTDVIGVVSLT [RRP6] | 1.96 ± 0.091 | 1.57 ± 0.054 | 1.37 ± 0.11 | 1.93 ± 0.072
NLSEARLVIKEALVERR [RPB4] | 3.33 ± 0.28 | 2.75 ± 0.13 | 2.83 ± 0.21 | 3.3 ± 0.13
ENYDAKIELEKKEKWAR [YIL149C/MLP2] | 3.2 ± 0.08 | 3.2 ± 0.12 | 2.67 ± 0.12 | 3.12 ± 0.067
DLAVCATIIGIISTAIA [ECM29] | 1.95 ± 0.052 | 2.07 ± 0.043 | 1.99 ± 0.054 | 1.95 ± 0.029
AKRHRKILRDNIQGITK [HHF1] | 3.01 ± 0.094 | 3.44 ± 0.098 | 3.21 ± 0.058 | 3.07 ± 0.069
EDHIFFKYIYELILAGA [YDL116W/NUP84] | 1.74 ± 0.07 | 1.98 ± 0.064 | 1.69 ± 0.089 | 1.66 ± 0.061
THSYNFMRQNLEWNMAN [RPC82] | 2.45 ± 0.064 | 1.75 ± 0.057 | 1.74 ± 0.07 | 2.24 ± 0.048
CRNDAVNWLAYTYLYVR [BRR2] | 3.25 ± 0.063 | 3.54 ± 0.046 | 3.18 ± 0.046 | 3.21 ± 0.043
NTTVISDKQRRLLAKDA [DIS3] | 2.37 ± 0.051 | 2.23 ± 0.045 | 2.06 ± 0.066 | 2.18 ± 0.045
PNIADYITAKNNVVINF [PRP8] | 2.11 ± 0.087 | 1.26 ± 0.065 | 1.43 ± 0.28 | 1.26 ± 0.067
TVVQVYDNGQVFPSSIL [RPP0] | 1.19 ± 0.059 | 1.29 ± 0.13 | – | 1.29 ± 0.14
TGRMRYLKHVSRRFKNG [RPL37A] | 2.67 ± 0.059 | 3.25 ± 0.042 | 3.44 ± 0.048 | 3.38 ± 0.047
SENHTESDAPPKSTAPI [YOR098C/NUP1] | 2.75 ± 0.058 | 2.24 ± 0.054 | 2.51 ± 0.058 | 2.47 ± 0.06
GKVVGDKWESYLNLLQE [RPB10] | 3.24 ± 0.076 | 2.65 ± 0.086 | 2.49 ± 0.11 | 3.26 ± 0.055
